Assay results from article PMC11502334, “Fungal glyceraldehyde 3-phosphate dehydrogenase GpdC maintains glycolytic mechanism against reactive nitrogen stress-induced damage” (Frontiers in Microbiology, 2024).

How the values were obtained:
Assay in all cases: purified protein
Format in all cases: biochemical, Aspergillus nidulans
purified protein [1] = substrate: NC(=O)c1ccc[n+]([C@@H]2O[C@H](COP(=O)(O)OP(=O)(O)OC[C@H]3O[C@@H](n4cnc5c(N)ncnc54)[C@H](O)[C@@H]3O)[C@@H](O)[C@H]2O)c1; details: GAP as co-substrate, 30 mM sodium pyrophosphate, 10 mM potassium phosphate, pH 8.4, 25°C, varied: cofactor
purified protein [2] = substrate: O=C[C@H](O)COP(=O)(O)O; details: 30 mM sodium pyrophosphate, 10 mM potassium phosphate, pH 8.4, 25°C
purified protein [3] = substrate: NC(=O)c1ccc[n+]([C@@H]2O[C@H](COP(=O)(O)OP(=O)(O)OC[C@H]3O[C@@H](n4cnc5c(N)ncnc54)[C@H](OP(=O)(O)O)[C@@H]3O)[C@@H](O)[C@H]2O)c1; details: GAP as co-substrate, 30 mM sodium pyrophosphate, 10 mM potassium phosphate, pH 8.4, 25°C, varied: cofactor
[4] = co-substrate (NAD+ or NADP+) not given

Protein	Km (purified protein [1]) [µM]	kcat (purified protein [1]) [s⁻¹]	kcat/Km (purified protein [1]) [M⁻¹ s⁻¹]	Km (purified protein [2]; NAD+ as co-substrate) [µM]	kcat (purified protein [2]; NAD+ as co-substrate) [s⁻¹]	kcat/Km (purified protein [2]; NAD+ as co-substrate) [M⁻¹ s⁻¹]	Km (purified protein [3]) [µM]	kcat (purified protein [3]) [s⁻¹]	kcat/Km (purified protein [3]) [M⁻¹ s⁻¹]	Km (purified protein [2]; [4]) [µM]	kcat (purified protein [2]; [4]) [s⁻¹]	kcat/Km (purified protein [2]; [4]) [M⁻¹ s⁻¹]
rGpdA (GpdA) (Aspergillus nidulans FGSC A4) (protein, recombinant from cDNA, vector pET-21a, expressed in E. coli BL21 (DE3), HisTrap purified) MAPKVGINGFGRIGRIVFRNAIEAGTVDVVAVNDPFIETHYAAYMLKYDSQHGQFKGTIETYDEGLIVNGKKIRFHTERDPANIPWGQDGAEYIVESTGVFTTQEKASAHLKGGAKKVVISAPSADAPMFVMGVNNETYKKDIQVLSNASCTTNCLAPLAKVINDNFGIIEGLMTTVHSYTATQKVVDGPSAKDWRGGRTAATNIIPSSTGAAKAVGKVIPSLNGKLTGMAMRVPTSNVSVVDLTVRTEKAVTYDQIKDAVKKASENELKGILGYTEDDIVSTDLNGDTRSSIFDAKAGIALNSNFIKLVSWYDNEWGYSRRVVDLITYISKVDAQ	180 ± 30	85 ± 3.33	467000 ± 117000	410 ± 90	55 ± 3.33	132000 ± 40000	–	–	–	–	–	–
rGpdC (GpdC) (Aspergillus nidulans FGSC A4) (protein, recombinant from synthetic E. coli codon-optimized gene, vector pET-21a (Nde I/Hind III), expressed in E. coli BL21 (DE3), HisTrap purified) MAPSINEIPISDSPSACRVGINGFGRIGRNVLRVALARNDIQIVAINHTCTSVQDLIYLIRYDSSMGKLSPDIPIHAISETQISVNGRPIALTSERDLKKLNWAALGAEYVVECTGKFTKRELAQDHITYGGAKRVVISAPSSDSPTYVYGVNADEYRANEETRVISCASCTTNCVTPVLKVLQREFGIAQGFLTTVHAATKSQTVLDGYSKKNRRLGRSVFDNIIPTTTGAAKAIASVLPELTGKVTGASIRVPTPNVSLIDLTVSTETPTSLAEILAAFRRAAKNELAGVLSVSDEVLVSSDYLGDSHSAIVDAAACSELNPTFFKIMAWYDNEWGYSSRLLDLTRHIAHNE	420 ± 20	4 ± 0.333	9330 ± 333	–	–	–	47 ± 2	8.83 ± 0.5	183000 ± 16700	290 ± 20	2.67 ± 0.333	9170 ± 333
